The target of this series is Hemoglobin (Hb) (UniProt P69905;P68871 P69905:2-142,P68871:2-147). As to the kind of experiment: pulldown; biotin-aptamer streptavidin bead sandwich chemiluminescence in blood, R2=0.9821. Conditions: tags: conjugated to magnetic beads; also captured from blood; chain copies: alpha2beta2 tetramer (inferred); label: biotin (blood detection assay); stem-loop (MFOLD, -9.67 kcal/mol). An excerpt:
The detection of this embodiment is also a two-antibody assay; therefore, please refer to Example 2 for the detection process. In this embodiment, the nucleic acid sequence of SEQ ID NO: 7 with lower free energy was used as the aptamer. The aptamer was labeled by biotin and was used to replace the anti-Hb antibody in the two-antibody assay. The surface of the magnetic bead used was also conjugated with streptavidin. Upon mixing with blood, the hemoglobin-specific aptamer would bind to hemoglobin in blood. After a magnetic field was applied and the unbound substances were washed away, an acridinium ester-labeled anti-Hb antibody was added. The acridinium ester-labeled anti-Hb antibody produces chemiluminescense, thus, can be detected using luminometer.

Hemoglobin (Hb), sequence (P69905 2-142, chain 1 of 2): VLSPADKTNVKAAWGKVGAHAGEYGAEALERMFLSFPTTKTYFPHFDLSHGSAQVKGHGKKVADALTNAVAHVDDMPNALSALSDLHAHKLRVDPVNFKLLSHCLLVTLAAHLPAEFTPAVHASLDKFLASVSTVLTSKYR
Hemoglobin (Hb), sequence (P68871 2-147, chain 2 of 2): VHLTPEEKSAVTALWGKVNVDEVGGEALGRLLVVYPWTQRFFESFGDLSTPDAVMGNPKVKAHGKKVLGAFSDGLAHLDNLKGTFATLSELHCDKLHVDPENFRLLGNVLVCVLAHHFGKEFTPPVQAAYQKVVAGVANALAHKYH

B1: Hb-specific aptamer SEQ ID NO: 7 (ssDNA)
DNA: GGCAGGAAGACAAACACCAGGTGAGGGAGACGACGCGAGTGTTAGATGGTAGCTGTTGGTCTGTGGTGCTGT
With B1, the binding result is “binds”.

The record behind these values is patent publication US20150111306, “HEMOGLOBIN A1c-SPECIFIC APTAMER, HEMOGLOBIN-SPECIFIC APTAMER, AND APPLICATIONS THEREOF” (National Tsing Hua University, published 2015).
